Paper PMC12196904

Target: T1, OsARF25 B3 domain (OsARF25 123-243-GST) (Oryza sativa) (UniProt Q2QM84)
T1 sequence: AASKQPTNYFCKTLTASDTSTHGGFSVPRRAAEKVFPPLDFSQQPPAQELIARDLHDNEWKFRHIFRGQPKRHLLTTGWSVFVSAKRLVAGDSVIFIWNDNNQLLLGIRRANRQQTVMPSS
Assay: EMSA
Conditions: 20 uL: 50 ng probe, 2 ug protein, 2 uL 10x buffer (100 mM Tris, 500 mM KCl, 10 mM DTT, pH 7.5) plus 1 uL each of 1 M KCl, 50% glycerol, 0.5 M EDTA

With “GAGTTTTATATACATACAGAGCACATGCGGCATCAATGAGCAACAGGGTTTGCATGCGTTGCTGCTGCTTGAGTTCTAGTATTAGTATTTTTATTTCATCTTAATGCTTGAGCCAATAGTTCCTGAGCTGAGACATGTGCAGAAGTATCTCGTCTCGGCCTTGATTGGTGACACTGCTCGTCATGATCCAAGGGGGTGCTGCCTCAAAATATTCACGGATCGAATTCAAGCTTTTCAATTCATCA (double strand) [proOsOFP04 probe]” the binding was “binds”.

“TGATGAATTGAAAAGCTTGAATTCACTTCACATGCCGGCCACAATTACGGCGTTATTAGGCGGGACATGGGCATAGGAAAACCGGAAAGGTGTCCAAGGCGTTGCAGAGAATGTAGTGTGTCGGTCATAGGCTGCAAGCGAGTGCACTCCCACTTGCACCCAGGGATATATATTATCGTCATGCATGTGCCTTATGCTCTTGTCAAGCAATATTTTTTGGCAAGGCATGTGCTCTGTATGTATATAAAACTC (double strand) [proSG1 probe]” was tested, and the binding was “binds”.
